Changes are numbered by the printed parent chain. In names and notes the source's numbering stands.
B1: mouse pyridoxal kinase (mPDXK), wild type (enzyme, UniProt Q8K183 1-312, looked up)
chain: MEGECRVLSIQSHVVRGYVGNRAAMFPLQVLGFEVDAVNSVQFSNHTGYAHWKGQVLKSQELHELYEGLKVNDVNKYDYVLTGYTRDKSFLAMVVDIVRELKQQNSRLVYVCDPVMGDKWNGEGSMYVPQDLLPVYRDKVVPVADIITPNQFEAELLSGRKIHSQEEAFEVMDMLHCMGPDTVVITSSDLPSSQGSDYLIALGSQRMRKPDGSTVTQRIRMEMRKVEAVFVGTGDLFAAMLLAWTHKHPDNLKVACEKTVSAMQHVLQRTIRCAKAEAGEGQKPSPAQLELRMVQSKRDIEDPEIVVQATVL
B2: mouse pyridoxal kinase (mPDXK) V41W/F43R double mutant (enzyme, UniProt Q8K183 1-312, looked up)
chain: B1 chain with V41W, F43R
B3: mouse pyridoxal kinase (mPDXK) R86W (enzyme, UniProt Q8K183 1-312, looked up)
chain: B1 chain with R86W
B4: mouse pyridoxal kinase (mPDXK) F43R (enzyme, UniProt Q8K183 1-312, looked up)
chain: B1 chain with F43R
B5: mouse pyridoxal kinase (mPDXK) V41W (enzyme, UniProt Q8K183 1-312, looked up)
chain: B1 chain with V41W

Target: the molecule itself
Assay: SEC-MALS

Protein | stoichiometry N
B1 | 2
B2 | 2
B3 | 2
B4 | 2
B5 | 2

Reference: paper doi:10.1101/2020.04.05.026310 (bioRxiv, 2020)
